One test concerns the target human c-Met ECD (human) (UniProt P08581). As to the kind of experiment: SPR (Biacore T100), antibody captured by anti-Fc gamma antibody, c-Met ECD as analyte, 25 C.
Test [1] addresses c-Met receptor on OVCAR-8 cells (human) (UniProt P08581). Nature of the test: cell-based or functional assay.

Turning to “BsAB02, trivalent bispecific <ErbB-2-c-Met> antibody (full length trastuzumab with one single chain Fab fragment of c-Met 5D5 (humanized) at the C-terminus of the knob heavy chain) (bispecific antibody)”, in the test with human c-Met ECD (human), the Kd came to 8.2 nM. Besides, in test [1], the % Internalization of c-Met after 1 hour on OVCAR-8 cells (=100-% antibody on cell surface) is -7% and the % c-Met receptor on OVCAR-8 cell surface measured after 1 hour is 107%.

For the origin of these results see patent US20100254988A1.
